Assay results taken from paper PMC5260945 (Nature structural & molecular biology, 2011).
Numbering of substitutions follows the chain as printed. Numbers in names are those of the source.

Key:
[1] = molecular target: Unlabeled Ub (from bovine red blood cells, Sigma-Aldrich) (bovine, UniProt P0CG53 1-76); experiment: NMR titration
15N-labeled Ub = 15N-labeled Ub (UniProt P0CG47 1-76); experiment: NMR titration

B1: TRABID AnkUBD (aa 245-339) (domain or fragment)
chain: LEVDFKKLKQIKNRMKKTDWLFLNACVGVVEGDLAAIEAYKSSGGDIARQLTADEVRLLNRPSAFDVGYTLVHLAIRFQRQDMLAILLTEVSQQA
Question: Does B1 bind [1]?
Answer: Result: binds

Question: And the Kd (15N-labeled Ub)?
Answer: The Kd was 134 ± 19 µM.

B2: TRABID AnkUBD H317A (domain or fragment)
chain: B1 chain with H73A
Question: Which Kd (15N-labeled Ub) does the source give for B2 here?
Answer: The Kd was greater than 1200 µM.
